Assay results reported in patent US20220144940A1 (VIELA BIO, published 2022).
Numbering of substitutions follows the chain as printed. Values joined by “and” are separate entries in the source; they are usually repeats but may differ in a detail not shown here. Identical values can stand only once.

B1: ILT70137 (antibody, V domains shown)
VH: QVQLQQSGAEVKKPGASVKVSCKASGYTFTSYGISWVRQAPGQGLEWMGWISAYNGNTNYAQKLQGRVTMTTDTSTSTAYMELRSLRSDDTAVYYCARNGLWGWDSDAFDIWGRGTLVTVSS
VL: QSALTQPASVSGSPGQSITISCTGTSSDVGGYNYVSWYQQHPGKAPKLMIYDVSNRPSGVSNRFSGSKSGNTASLTISGLQAEDEADYYCSSYTSSSTVVFGGGTKVTVL
B2: ILT70144 (antibody, V domains shown)
VH: B1 VH with Q5V, T72R, T76I, R84S, S85R, R114Q, L117T
VL: QSVLTQPPSVSAAPGQKVTISCSGSSSNIGNNYVSWYQQLPGTAPKLLIYDNNKRPSGIPDRFSGSKSGTSATLGITGLQTGDEADYYCGTWDSSLSAGVFGTGTQLTVL
B3: ILT70052 (antibody, V domains shown)
VH: EVQLVESGGGLVKPGGSLRLSCEASGFTFTDYYMNWIRQAPGKGLEWISYISPGGTTVYYADSVKGRFTISRDNAKNSLYLQMNSLRVEDTAVYYCARDISGYGDWFDPWGKGTLVTVSS
VL: QSVVTQPPSASGTPGQRVTISCSGSSSNIGSNTVNWYQLLPATAPRILIYNNNQRPSGVPDRFAGSKSGTSASLAISGLQSEDEADYYCGAWDDSLNSPVFGGGTKLTVL
B4: ILT70100 (antibody, V domains shown)
VH: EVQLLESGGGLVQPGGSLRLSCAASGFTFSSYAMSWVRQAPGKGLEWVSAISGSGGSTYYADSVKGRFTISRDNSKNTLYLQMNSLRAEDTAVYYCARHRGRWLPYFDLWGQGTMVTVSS
VL: DIQLTQSPSSLSASVGERVTITCQASQDIRSYLNWYQQKPGKAPKLLIYDVSNLETGVPSRFSGSGSGTEYTFSISSLQPEDFATYYCQQYDKAPLTFGGGTKVEIK
B5: ILT70083 (antibody, V domains shown)
VH: EVQLLESGGGLVQPGGSLRLSCAASGFTFSSYAMSWVRQAPGKGLEWVSAISGSGGSTYYADSVKGWFTISRDNSKNTLYLQMNSLRAEDTAVYYCARRTYYYDSDGHSDVFDIWGRGTLVTVSS
VL: QSVVTQPPSVSAAPGQKVTISCSGSASNIGSNFVSWYQQLPGRAPKLLIYDNDKRDLGIPDRFSASISSTSAALAITGLQTEDEADYYCGTWDTSLTVGVFGGGTKLTVL
B6: afucosylated ILT70083 (antibody, V domains shown)
VH: B5 VH
VL: B5 VL
modifications: afucosylated: lacks the α-1,6 fucose moiety on the N-glycan at Asn-297 of the heavy chain
B7: ILT70080.6 (antibody, V domains shown)
VH: QVQLVQSGAEVKKPGSSVKVSCKASGDSFRNYAVSWVRQAPGQGLEWMGAMMPSFGTREHSQQFQGRVTLTADESTSTAYMELSSLRSEDTAVYYCAGSRDYNAYHFWTGPPDFWGRGTLVTVSS
VL: SYVLTQPPSVSVAPGKTARITCGGDSVGSTSVHWYQQKPGQAPVLVIYYNSDRPSGIPERFSGSNSGNTATLTISRVEAGDEADYYCQVWDTSSDHPEFGGGTKLTVL
notes: Engineered (germlined) variant of ILT70080, tested as IgG1

Key:
cynomolgus ILT7 [1] = biological target: T1, cynomolgus ILT7 (cynomolgus, UniProt P59901 24-499 (human entry)); assay: flow cytometry on CynoILT7 CT-125 cells
T1 construct: also called cyno ILT7; cynomolgus monkey ILT7
Description: (§1) Binding of anti-ILT7 variants and isotype controls on human and cynomolgus ILT7 was assessed by flow cytometry analysis using CT-550 and cynoILT7 CT-125 cells respectively. CT-125 cells were used as control. Cells were resuspended in Blocking Buffer (PBS supplemented with 10% FBS) at a concentration of 5 million cells per mL and transferred into a round-bottom 96-well plates (BD Falcon™ Clear Microtest Plate, BD Biosciences) at 100 μL per well. Anti-ILT7 variants and control antibodies were added onto the cells for 30 min at 4° C. on a plate shaker. Cells were washed three times with PBS and resuspended in Blocking Buffer (100 μL/well). Human IgG binding on cell surface was detected using a secondary anti-human IgG antibody conjugated to DyLight 649 (1 in 1000 dilution). Cells were incubated in the dark for 30 min at 4° C. on a plate shaker. Cells were washed three times with PBS and surface fluorescence was acquired using LSRII Flow Cytometry System and FACSDiva Software (both from BD Biosciences).
In order to determine the binding EC₅₀ of the variants on cells expressing cynomolgus ILT7, the antibodies were screened for binding on CynoILT7 CT-125 cells by flow cytometry. […] The graph in FIG. 3 represents the mean results from two independent experiments, and the table in FIG. 3 show the average EC₅₀.

[2] = biological target: T2, HA-tagged human ILT7 on CT-550 cells (human, UniProt P59901 24-499); assay: cell-based or functional assay
cynomolgus ILT7 [3] = biological target: T1, cynomolgus ILT7; assay: cell-based or functional assay
[4] = biological target: T2, HA-tagged human ILT7 on CT-550 cells; assay: flow cytometry on CT-550 cells
Description: as §1
(§2) In order to determine the binding EC50 of ILT70019, ILT70028, ILT70052, ILT70076, ILT70080, ILT70083, ILT70089, ILT70100, ILT70137, ILT70142 and ILT70144 on cells expressing human ILT7, the candidates were screened for binding on CT-550 cells by flow cytometry. ILT70080 (EC₅₀=0.28 nM), ILT70083 (EC₅₀=0.37 nM), ILT70137 (EC₅₀=0.41 nM), ILT70144, ILT70142, ILT70052, and ILT70100 bound to human ILT7-expressing cells. […] The anti-ILT7 antibodies 7C7 (7C7 is described above in Example 1) and SBI33 (SBI33 refers to the anti-ILT7 antibody ILT7#33 provided in U.S. Published Application No. 2009/0280128) were used as positive controls.

[5] = biological target: T2, HA-tagged human ILT7 on CT-550 cells; assay: flow cytometry on CT-550 cells expressing human ILT7, anti-human IgG DyLight 649 detection; table 'Mean Ec50 (nM)', n = 2
Description: as §1, §2

[6] = biological target: T2, HA-tagged human ILT7 on CT-550 cells; assay: flow cytometry on human ILT7-expressing cells, left panel 'Human ILT7', table 'Ec50 (nM)'
Description: as §1

[7] = biological target: T2, HA-tagged human ILT7 on CT-550 cells; assay: flow cytometry (MFI) on human ILT7-expressing cells, left panel 'Human ILT7', table 'Ec50 (pM) Mean ± SD n=3'
cynomolgus ILT7 [8] = biological target: T1, cynomolgus ILT7; assay: flow cytometry on cynomolgus ILT7-expressing cells, bottom panel, table 'Ec50 (pM)'
Description: as §1

cynomolgus ILT7 [9] = biological target: T1, cynomolgus ILT7; assay: flow cytometry (MFI) on cynomolgus ILT7-expressing cells, right panel 'Cynomolgus ILT7', table 'Ec50 (pM) Mean ± SD n=3'
[10] = biological target: T2, HA-tagged human ILT7 on CT-550 cells; assay: flow cytometry on CT-550 cells (human ILT7), top panel, table 'Ec50 (pM)'
Description: as §1

cynomolgus ILT7 [11] = biological target: T1, cynomolgus ILT7; assay: flow cytometry on CynoILT7 CT-125 cells (cynomolgus ILT7), bottom panel, table 'Ec50 (pM)'
Description: as §1

T1 sequence (P59901 other isoform, or with tags, fused parts or gaps limits assumed): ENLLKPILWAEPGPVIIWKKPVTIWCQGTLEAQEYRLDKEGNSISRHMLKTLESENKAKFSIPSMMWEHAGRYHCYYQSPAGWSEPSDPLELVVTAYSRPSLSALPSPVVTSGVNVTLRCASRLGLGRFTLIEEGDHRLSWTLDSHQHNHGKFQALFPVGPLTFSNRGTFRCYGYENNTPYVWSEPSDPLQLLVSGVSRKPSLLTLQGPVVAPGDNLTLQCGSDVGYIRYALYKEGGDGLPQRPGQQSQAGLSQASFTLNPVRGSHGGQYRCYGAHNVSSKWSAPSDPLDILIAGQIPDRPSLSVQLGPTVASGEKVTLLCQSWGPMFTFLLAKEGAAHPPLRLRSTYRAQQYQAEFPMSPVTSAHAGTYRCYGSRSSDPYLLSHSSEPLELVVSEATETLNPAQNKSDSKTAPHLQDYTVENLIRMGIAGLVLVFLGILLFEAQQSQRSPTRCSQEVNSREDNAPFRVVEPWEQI
T2 sequence (P59901 24-499): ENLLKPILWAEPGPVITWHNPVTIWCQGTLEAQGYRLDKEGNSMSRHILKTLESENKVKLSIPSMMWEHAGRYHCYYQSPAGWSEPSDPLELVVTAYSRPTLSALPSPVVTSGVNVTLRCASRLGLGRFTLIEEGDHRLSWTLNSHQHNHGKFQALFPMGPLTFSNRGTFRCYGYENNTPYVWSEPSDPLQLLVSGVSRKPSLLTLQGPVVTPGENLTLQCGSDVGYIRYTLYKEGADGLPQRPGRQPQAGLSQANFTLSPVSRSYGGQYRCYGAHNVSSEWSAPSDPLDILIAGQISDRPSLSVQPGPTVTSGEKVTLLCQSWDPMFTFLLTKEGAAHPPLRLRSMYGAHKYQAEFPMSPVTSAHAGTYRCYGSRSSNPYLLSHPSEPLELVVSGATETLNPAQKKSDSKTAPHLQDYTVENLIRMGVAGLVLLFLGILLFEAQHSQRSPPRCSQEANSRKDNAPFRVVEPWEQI

Binder	EC50 (cynomolgus ILT7 [1]) [nM]	ADCC EC50 [2]	ADCC EC50 (cynomolgus ILT7 [3])	EC50 [4]	EC50 [5] [nM]	EC50 [6] [nM]	EC50 [7] [nM]	EC50 (cynomolgus ILT7 [8]) [nM]	EC50 (cynomolgus ILT7 [9]) [nM]	EC50 [10] [nM]	EC50 (cynomolgus ILT7 [11]) [nM]
B1	1.4	0.044 nM	0.015 nM	0.41 nM	–	–	–	–	–	–	–
B2	7.81	–	–	–	1.7	–	–	–	–	–	–
B3	0.35	–	0.073 nM	–	23.1	–	–	–	–	–	–
B4	1.63	–	0.188 nM	–	180	–	–	–	–	–	–
B5	1.37	0.089 nM and 0.094 nM	0.433 nM and 0.36 nM	0.37 nM and 0.464 nM	–	0.25	0.308	2.65	1.28	–	–
B6	–	0.0105 nM	0.057 nM	–	–	0.38	0.211	–	0.863	–	–
B7	–	< 0.0141 nM and 0.0069 nM	–	–	–	–	0.155	–	0.37	0.287	0.428
